Measured values published in the RNAGym collection of RNA variant scans (doi:10.1073/pnas.2313332121).

B1: TPR t1 (parent)
chain: GACCAAUCUGCCCUCAGAGCUCGAGAACAUCUUCGGAUGCAGAGGAGGCAGGCUUCGGUGGCGCGAUAGCGCCAACGUCCUCAACCUCCAAUGCAUCCCACCACAUGAUGAUGCCUGAAGAGCCUUGGUUUUUUG

Variants of: B1
Assay: polymerase ribozyme fitness, log enrichment relative to wild type (log ratio); higher = more active; in vitro selection for triplet polymerase activity
Outline: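 Mutant libraries of each subunit of a heterodimeric triplet polymerase ribozyme were built by PCR and transcribed. Each library went through one round of in vitro selection in triplicate: annealing with biotinylated primer, partner subunit and triplets, frozen incubation at −7 °C, gel excision of extended constructs, streptavidin-bead capture and RT-PCR. Input and output libraries were Illumina-sequenced; only genotypes with ≥10 input reads and ≥1 read per output were kept. Fitness is log2(genotype enrichment/wild-type enrichment), using inverse-variance-weighted replicate averages.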

Variant | polymerase ribozyme fitness (log ratio)
GACCAAUCUGCCCUCAGAGCUCGAGAACAUCUUCGGAUGCAGAGGAGGCAGGCUUCGGUGGCGCGAUAGCCCCAACGUCCUCAACCUCUAAUGCAUCCCACCACAUGAUGAUGCCUGAAGAGCCUCGGUUUUUUG [G71C C89U U126C] | -2.71
GACCAAUCUGCCCUCAGAGCUCGAGAACAUCUUCGGAUGCAGAGGAGGCAGGCUUCGGUGGCGCGAUAGCCCCAACGUCCUCAACCUCCAAUGCAUCCCACCACAUGAUGAUGCCUGAAAAGCCUUGGUUUUUUG [G71C G120A] | -0.0968
GACCAAUCUGCCCUCAGAGCUCGAGAACAUCUUCGGAUGCAGAGGAGGCAGGCUUCGGUGGCGCGAUAGCCCCAACGUCCUCAACCUCCAAUCCAUCCCACCACAUGAUGAUGCCUGAAGAGCCUUAGUUUUUUG [G71C G93C G127A] | -2.95
GACCAAUCUGCCCUCAGAGCUCGAGAACAUCUUCGGAUGCAGAGGAGGCAGGCUUCGGUGGCGCGAUAGCUCCAACGUCCUCAACCUCCAAUGCAUCCCAGCACAGGAUGAUGCCUGAAGAGCCUUGGUUUUUUG [G71U C101G U106G] | -3.61
GACCAAUCUGCCCUCAGAGCUCGAGAACAUCUUCGGAUGCAGAGGAGGCAGGCUUCGGUGGCGCGAUAGCUCCAACGUCCUCAACCUCCAGUUCAUCCCACCACAUGAUGAUGCCUGAAGAGCCUUGGUUUUUUG [G71U A91G G93U] | -2.17
GACCAAUCUGCCCUCAGAGCUCGAGAACAUCUUCGGAUGCAGAGGAGGCAGGCUUCGGUGGCGCGAUAGCCCCAACGUCCUCAACCUCCCAUGCAUCCCACCACAUGAUGAUGCCUGAAGAGCCUUGGUUUUUUG [G71C A90C] | -3.67
GACCAAUCUGCCCUCAGAGCUCGAGAACAUCUUCGGAUGCAGAGGAGGCAGGCUUCGGUGGCGCGAUAGCCCCAACGUCCUCAACCUCCGAUGCAUCCCACCACAUGAUGAUGCCUGAAGAGCCUUGGUUUUUUG [G71C A90G] | -0.94
GACCAAUCUGCCCUCAGAGCUCGAGAACAUCUUCGGAUGCAGAGGAGGCAGGCUUCGGUGGCGCGAUAGCUCCAACGUCCUCAACCUCCAAUGCAUCCCACCAAAUGAUGAUGCCUGAAGAGCCUUGGUUUUUUG [G71U C104A] | -1.81
GACCAAUCUGCCCUCAGAGCUCGAGAACAUCUUCGGAUGCAGAGGAGGCAGGCUUCGGUGGCGCGAUAGCUCCAACGUUCUCAACCUCCAAUGCAUCCCACCACAUGAUGAUGCCUGAAGAGCCUUGGUUUUUUG [G71U C79U] | -0.201
GACCAAUCUGCCCUCAGAGCUCGAGAACAUCUUCGGAUGCAGAGGAGGCAGGCUUCGGUGGCGCGAUAGCUCCAACGUCCUCAACCUCCAAUGCAUCCCACCACCUGAUGAUGCCUGAAGAGCCUUGGUUUUUUG [G71U A105C] | -2.99
GACCAAUCUGCCCUCAGAGCUCGAGAACAUCUUCGGAUGCAGAGGAGGCAGGCUUCGGUGGCGCGAUAGCUCCAAAGUCCUCAACCUCCAAUGCAUCCCACCACAUGAUGAUGCCUGAAGAGCCUUGGUUUUUUG [G71U C76A] | -5.51
GACCAAUCUGCCCUCAGAGCUCGAGAACAUCUUCGGAUGCAGAGGAGGCAGGCUUCGGUGGCGCGAUAGCUCCAACGUCCUCAACCUCCAUUGCAUCCCACCACAUGAUGAUGCCUGAAGAGCCUUGGUUUCUUG [G71U A91U U132C] | -2.4
GACCAAUCUGCCCUCAGAGCUCGAGAACAUCUUCGGAUGCAGAGGAGGCAGGCUUCGGUGGCGCGAUAGCCCCAACGUCCUCAACCUCCAAUGCAUCUCACCACAUGAUGAUGCCUGAAGAGCCUUGGUUUUUUG [G71C C98U] | -1.75
GACCAAUCUGCCCUCAGAGCUCGAGAACAUCUUCGGAUGCAGAGGAGGCAGGCUUCGGUGGCGCGAUAGCCCCAACGUCCUCAACCUGCAAUGCAUCCCACCACAUGAUGAUGCCUGAAGAGCCUUGGUUUUUUG [G71C C88G] | -1.88
GACCAAUCUGCCCUCAGAGCUCGAGAACAUCUUCGGAUGCAGAGGAGGCAGGCUUCGGUGGCGCGAUAGCUCCAACGUCCUCAACCUCCAAUGCAUCCCACCACAUGAUGAUGCUUGAAGAGCCUUGGUUUUUUG [G71U C115U] | -1.41
GACCAAUCUGCCCUCAGAGCUCGAGAACAUCUUCGGAUGCAGAGGAGGCAGGCUUCGGUGGCGCGAUAGCUCCAACGUCCUCAACCUCGAAUGCAUCCCACCACAUGAUGAUGCCUGAAGAGCCUUGGUUUUUUG [G71U C89G] | -1.88
GACCAAUCUGCCCUCAGAGCUCGAGAACAUCUUCGGAUGCAGAGGAGGCAGGCUUCGGUGGCGCGAUAGCUCGAACGUCCUCAACCUCCUAUGCAUCCCACCACAUGAUGAUGUCUGAAGAGCCUUGGUUUUUUG [G71U C73G A90U C114U] | -7.06
GACCAAUCUGCCCUCAGAGCUCGAGAACAUCUUCGGAUGCAGAGGAGGCAGGCUUCGGUGGCGCGAUAGCUCCAACGUCCUCAACCUUCAAUGCAUCCCCCCACAGGAUGAUGCCUGAAGAGCCUUGGUUUUUUG [G71U C88U A100C U106G] | -5.6
GACCAAUCUGCCCUCAGAGCUCGAGAACAUCUUCGGAUGCAGAGGAGGCAGGCUUCGGUGGCGCGAUAGCCCCAACGUCCUCAACCUCCAACGCAUCCCACCACAUGAUGAUGCCUGAAGAGCCUUGGUUUUUUG [G71C U92C] | -2.76
GACCAAUCUGCCCUCAGAGCUCGAGAACAUCUUCGGAUGCAGAGGAGGCAGGCUUCGGUGGCGCGAUAGCCCCAACGACCUCAACCUCCAAUGCAUCCCACCACAUGAUGAUGCCUGGAGAGCCUUGGUUUUUUG [G71C U78A A118G] | -0.642
GACCAAUCUGCCCUCAGAGCUCGAGAACAUCUUCGGAUGCAGAGGAGGCAGGCUUCGGUGGCGCGAUAGCCCCAACGUACUCAACCUCCAAUGCAUCCCACCACAUGAUGAUGCCUGAAGAGCCUUGGUUUUUUG [G71C C79A] | -1.86

Variant | polymerase ribozyme fitness (log ratio)
GACCAAUCUGCCCUCAGAGCUCGAGAACAUCUUCGGAUGCAGAGGAGGCAGGCUUCGGUGGCGCGAUAGCCCCAACGUCCUCAACCUCCAAUGCAUCCCACCACAUGAUGAAGCCUGAAGAGCCUUGGUUUUAUG [G71C U112A U133A] | 0.204
GACCAAUCUGCCCUCAGAGCUCGAGAACAUCUUCGGAUGCAGAGGAGGCAGGCUUCGGUGGCGCGAUAGCCCCAACGUCCUCAACCUCCAAUGCAUCCCACCACAUGAUGAUGCCUGAAGUGCCUUGGUUUUUUG [G71C A121U] | 0.296
GACCAAUCUGCCCUCAGAGCUCGAGAACAUCUUCGGAUGCAGAGGAGGCAGGCUUCGGUGGCGCGAUAGCCCCAACGUCCUCAACCUCCAAUACAUCCCACCACAUGAUGAUGCCUGAAGAGCCUUGGUUUUUUG [G71C G93A] | -1.77
GACCAAUCUGCCCUCAGAGCUCGAGAACAUCUUCGGAUGCAGAGGAGGCAGGCUUCGGUGGCGCGAUAGCCCCAACGUCCUCAACCUCCAAUGCAUCCCACCACAUGAUGAUGCCUGAAGAGCCUUGGUAUUUUG [G71C U130A] | -1.3
GACCAAUCUGCCCUCAGAGCUCGAGAACAUCUUCGGAUGCAGAGGAGGCAGGCUUCGGUGGCGCGAUAGCCCCAACGUCCCCAACCUCCGAUGCAUCCCACCACAUGAUGAUGCCUGAAGAGCCUUGGUUUUUUG [G71C U81C A90G] | -2.36
GACCAAUCUGCCCUCAGAGCUCGAGAACAUCUUCGGAUGCAGAGGAGGCAGGCUUCGGUGGCGCGAUAGCUCCAACGUCCUAAACCUCCAAUGCAUCCCACCACAUGAUGAUGCCAGAAGAGCCUUGGUUUUUUG [G71U C82A U116A] | -4.01
GACCAAUCUGCCCUCAGAGCUCGAGAACAUCUUCGGAUGCAGAGGAGGCAGGCUUCGGUGGCGCGAUAGCUCCAACGUCCUGAACCUCCAAUGCAUCCCACCACAUGAUGAUGCCUGAAGAGCCUUGGUUUUUUG [G71U C82G] | -1.17
GACCAAUCUGCCCUCAGAGCUCGAGAACAUCUUCGGAUGCAGAGGAGGCAGGCUUCGGUGGCGCGAUAGCCCCAACGUCCUCAACCCCCAAUGCAUCCCACCACAUGAUGAUGCCUGAAGAGCCUUGGUUUUUUG [G71C U87C] | -1.45
GACCAAUCUGCCCUCAGAGCUCGAGAACAUCUUCGGAUGCAGAGGAGGCAGGCUUCGGUGGCGCGAUAGCCCCAACGUCCUCAACCUCCAAUGCAUCCCACCACAUGAUGAUGCCUGAAGAGCCUUCGUUUUUUG [G71C G127C] | -2.16
GACCAAUCUGCCCUCAGAGCUCGAGAACAUCUUCGGAUGCAGAGGAGGCAGGCUUCGGUGGCGCGAUAGCCCCAACGUCCUCAACCUCCAAUGCACCCCACCACAUGAUGAUGCCUGAAGAGCCUUAGUUUUUUG [G71C U96C G127A] | -3.25
GACCAAUCUGCCCUCAGAGCUCGAGAACAUCUUCGGAUGCAGAGGAGGCAGGCUUCGGUGGCGCGAUAGCUCCAACGUCCUCAACCUUCAAUGCAUCCCACCACAUGAUGAUGCCUGAAGAGCCUUGGUGGUUUG [G71U C88U U130G U131G] | -2.2
GACCAAUCUGCCCUCAGAGCUCGAGAACAUCUUCGGAUGCAGAGGAGGCAGGCUUCGGUGGCGCGAUAGCUCCAACGUCCUCAACCUCCAAUGCAUCCCAUCACAUGAUGAUGCCUGAAGAGCCUUGGUUUUUUG [G71U C101U] | -0.379
GACCAAUCUGCCCUCAGAGCUCGAGAACAUCUUCGGAUGCAGAGGAGGCAGGCUUCGGUGGCGCGAUAGCUCCAACGUCCUCAACCUCCAAUGCAUCCCAACACAUGAUGAUGCCUGAAGAGCCUUGGUUUUUUG [G71U C101A] | -1.24
GACCAAUCUGCCCUCAGAGCUCGAGAACAUCUUCGGAUGCAGAGGAGGCAGGCUUCGGUGGCGCGAUAGCUCCAACGUCCUCAACCUCCAAUGCAUCCCAGCACAUGAUGAUGCCUGAAGAGCCUUGGUUUUUUG [G71U C101G] | -1.83
GACCAAUCUGCCCUCAGAGCUCGAGAACAUCUUCGGAUGCAGAGGAGGCAGGCUUCGGUGGCGCGAUAGCUCCAACGUCCUCAACCUCCAAUGCAUCCUACCACAUGAUGAUGCCUGAAGAGCCUUGGUUUUUUG [G71U C99U] | -4.69
GACCAAUCUGCCCUCAGAGCUCGAGAACAUCUUCGGAUGCAGAGGAGGCAGGCUUCGGUGGCGCGAUAGCCCCAACGUCCUCAACCUCCAAUGCAUCCCACCACAAGAUGAUCCCUGAAGAGCCUUGGUUUUUUG [G71C U106A G113C] | -3.53
GACCAAUCUGCCCUCAGAGCUCGAGAACAUCUUCGGAUGCAGAGGAGGCAGGCUUCGGUGGCGCGAUAGCUCCAACGUCCUCGACCUCCACUGCACCCCACCACAUGAUAAUGCCUGAAGAGCCUUGGUUUUUUG [G71U A83G A91C U96C G110A] | -6.02
GACCAAUCUGCCCUCAGAGCUCGAGAACAUCUUCGGAUGCAGAGGAGGCAGGCUUCGGUGGCGCGAUAGCCCCAACGUCCUCAACCUCCAAUGCAUCCCACCUCAUGAUGAUGCAUAAAGAGCCUUGGUUUUUUG [G71C A103U C115A G117A] | -5.57
GACCAAUCUGCCCUCAGAGCUCGAGAACAUCUUCGGAUGCAGAGGAGGCAGGCUUCGGUGGCGCGAUAGCCCCAACGUACUCAAGCUCCAAUGCAUCCCACCACAUGAUGAUGCCUGAAAAGCCUUGGUUUUUUG [G71C C79A C85G G120A] | -3.28
GACCAAUCUGCCCUCAGAGCUCGAGAACAUCUUCGGAUGCAGAGGAGGCAGGCUUCGGUGGCGCGAUAGCUCCAACGUCCUCAACCUCCUAUGCAUCCCACCACAUGAUGAUGCCUGAAGAGCCUUGGUUUUUUG [G71U A90U] | -1.78
GACCAAUCUGCCCUCAGAGCUCGAGAACAUCUUCGGAUGCAGAGGAGGCAGGCUUCGGUGGCGCGAUAGCCCCAACGUCCUCAACCUCCAAUGCAUCCCACCACAUGAUGAUGCCUCAAGAGCCUUGGUUUUUUG [G71C G117C] | -4.7
